Measured values: patent publication US20200299347A1 (Merck KGaA, published 2020)

B1: FGF18_Fab fulranumab (LH) (other)
light: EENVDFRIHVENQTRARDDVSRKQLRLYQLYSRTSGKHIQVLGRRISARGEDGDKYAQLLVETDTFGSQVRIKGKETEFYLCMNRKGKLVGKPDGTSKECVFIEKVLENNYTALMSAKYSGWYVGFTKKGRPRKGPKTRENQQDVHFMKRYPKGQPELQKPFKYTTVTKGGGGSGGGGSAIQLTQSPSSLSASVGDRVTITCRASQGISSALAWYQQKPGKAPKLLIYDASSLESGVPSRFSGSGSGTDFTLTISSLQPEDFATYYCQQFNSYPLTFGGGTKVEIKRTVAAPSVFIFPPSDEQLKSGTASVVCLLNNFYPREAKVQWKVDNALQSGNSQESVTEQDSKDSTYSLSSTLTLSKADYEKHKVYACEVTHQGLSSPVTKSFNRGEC
heavy: EVQLVESGGGLVQPGGSLRLSCAASGFTLRSYSMNWVRQAPGKGLEWVSYISRSSHTIFYADSVKGRFTISRDNAKNSLYLQMDSLRDEDTAMYYCARVYSSGWHVSDYFDYWGQGILVTVSSASTKGPSVFPLAPSSKSTSGGTAALGCLVKDYFPEPVTVSWNSGALTSGVHTFPAVLQSSGLYSLSSVVTVPSSSLGTQTYICNVNHKPSNTKVDKKVEPKSC
B2: FGF18 SEED fulranumab (SEED-B) (other)
chain: EENVDFRIHVENQTRARDDVSRKQLRLYQLYSRTSGKHIQVLGRRISARGEDGDKYAQLLVETDTFGSQVRIKGKETEFYLCMNRKGKLVGKPDGTSKECVFIEKVLENNYTALMSAKYSGWYVGFTKKGRPRKGPKTRENQQDVHFMKRYPKGQPELQKPFKYTTVTKGGGGSGGGGSDKTHTCPPCPAPEAAGGPSVFLFPPKPKDTLMISRTPEVTCVVVDVSHEDPEVKFNWYVDGVEVHNAKTKPREEQYNSTYRVVSVLTVLHQDWLNGKEYKCKVSNKALPAPIEKTISKAKGQPFRPEVHLLPPSREEMTKNQVSLTCLARGFYPKDIAVEWESNGQPENNYKTTPSRQEPSQGTTTFAVTSKLTVDKSRWQQGNVFSCSVMHEALHNHYTQKTISLSPGK
heavy: EVQLVESGGGLVQPGGSLRLSCAASGFTLRSYSMNWVRQAPGKGLEWVSYISRSSHTIFYADSVKGRFTISRDNAKNSLYLQMDSLRDEDTAMYYCARVYSSGWHVSDYFDYWGQGILVTVSSASTKGPSVFPLAPSSKSTSGGTAALGCLVKDYFPEPVTVSWNSGALTSGVHTFPAVLQSSGLYSLSSVVTVPSSSLGTQTYICNVNHKPSNTKVDKKVEPKSCDKTHTCPPCPAPEAAGGPSVFLFPPKPKDTLMISRTPEVTCVVVDVSHEDPEVKFNWYVDGVEVHNAKTKPREEQYNSTYRVVSVLTVLHQDWLNGKEYKCKVSNKALPAPIEKTISKAKGQPREPQVYTLPPPSEELALNELVTLTCLVKGFYPSDIAVEWLQGSQELPREKYLTWAPVLDSDGSFFLYSILRVAAEDWKKGDTFSCSVMHEALHNRFTQKSLDRSPGK
light: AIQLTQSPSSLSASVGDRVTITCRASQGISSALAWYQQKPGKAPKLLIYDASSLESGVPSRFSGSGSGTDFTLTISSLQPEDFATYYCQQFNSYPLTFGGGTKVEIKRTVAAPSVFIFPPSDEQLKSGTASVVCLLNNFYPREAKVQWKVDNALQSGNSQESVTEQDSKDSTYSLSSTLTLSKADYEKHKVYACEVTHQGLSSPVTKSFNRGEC
B3: FGF18_Fab tanezumab (LH) (other)
light: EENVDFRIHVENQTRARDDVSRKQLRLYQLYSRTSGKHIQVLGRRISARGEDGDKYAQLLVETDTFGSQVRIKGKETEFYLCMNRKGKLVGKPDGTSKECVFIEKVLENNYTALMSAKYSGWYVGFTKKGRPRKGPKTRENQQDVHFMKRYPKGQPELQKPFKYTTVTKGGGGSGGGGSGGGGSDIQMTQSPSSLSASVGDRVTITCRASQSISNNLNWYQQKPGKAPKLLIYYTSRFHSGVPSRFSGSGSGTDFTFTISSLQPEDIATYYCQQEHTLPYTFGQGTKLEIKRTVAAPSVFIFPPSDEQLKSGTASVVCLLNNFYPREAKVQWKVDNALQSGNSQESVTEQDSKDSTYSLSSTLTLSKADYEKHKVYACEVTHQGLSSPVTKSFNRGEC
heavy: QVQLQESGPGLVKPSETLSLTCTVSGFSLIGYDLNWIRQPPGKGLEWIGIIWGDGTTDYNSAVKSRVTISKDTSKNQFSLKLSSVTAADTAVYYCARGGYWYATSYYFDYWGQGTLVTVSSASTKGPSVFPLAPSSKSTSGGTAALGCLVKDYFPEPVTVSWNSGALTSGVHTFPAVLQSSGLYSLSSVVTVPSSSLGTQTYICNVNHKPSNTKVDKKVEPKSC
B4: FGF18_Fab fasinumab (HL) (other)
heavy: EENVDFRIHVENQTRARDDVSRKQLRLYQLYSRTSGKHIQVLGRRISARGEDGDKYAQLLVETDTFGSQVRIKGKETEFYLCMNRKGKLVGKPDGTSKECVFIEKVLENNYTALMSAKYSGWYVGFTKKGRPRKGPKTRENQQDVHFMKRYPKGQPELQKPFKYTTVTKGGGGSGGGGSQVQLVQSGAEVKKPGASVKVSCKVSGFTLTELSIHWVRQAPGKGLEWMGGFDPEDGETIYAQKFQGRVTMTEDTSTDTAYMELTSLRSEDTAVYYCSTIFGVVTNFDNWGQGTLVTVSSASTKGPSVFPLAPSSKSTSGGTAALGCLVKDYFPEPVTVSWNSGALTSGVHTFPAVLQSSGLYSLSSVVTVPSSSLGTQTYICNVNHKPSNTKVDKKVEPKSC
light: DIQMTQSPSSLSASAGDRVTITCRASQAIRNDLGWYQQKPGKAPKRLIYAAFNLQSGVPSRFSGSGSGTEFTLTISSLQPEDLASYYCQQYNRYPWTFGQGTKVEIKRTVAAPSVFIFPPSDEQLKSGTASVVCLLNNFYPREAKVQWKVDNALQSGNSQESVTEQDSKDSTYSLSSTLTLSKADYEKHKVYACEVTHQGLSSPVTKSFNRGEC
B5: FGF18 SEED fasinumab (SEED-A) (other)
chain: EENVDFRIHVENQTRARDDVSRKQLRLYQLYSRTSGKHIQVLGRRISARGEDGDKYAQLLVETDTFGSQVRIKGKETEFYLCMNRKGKLVGKPDGTSKECVFIEKVLENNYTALMSAKYSGWYVGFTKKGRPRKGPKTRENQQDVHFMKRYPKGQPELQKPFKYTTVTKGGGGSGGGGSDKTHTCPPCPAPEAAGGPSVFLFPPKPKDTLMISRTPEVTCVVVDVSHEDPEVKFNWYVDGVEVHNAKTKPREEQYNSTYRVVSVLTVLHQDWLNGKEYKCKVSNKALPAPIEKTISKAKGQPFRPEVHLLPPSREEMTKNQVSLTCLARGFYPKDIAVEWESNGQPENNYKTTPSRQEPSQGTTTFAVTSKLTVDKSRWQQGNVFSCSVMHEALHNHYTQKTISLSPGK
heavy: QVQLVQSGAEVKKPGASVKVSCKVSGFTLTELSIHWVRQAPGKGLEWMGGFDPEDGETIYAQKFQGRVTMTEDTSTDTAYMELTSLRSEDTAVYYCSTIFGVVTNFDNWGQGTLVTVSSASTKGPSVFPLAPSSKSTSGGTAALGCLVKDYFPEPVTVSWNSGALTSGVHTFPAVLQSSGLYSLSSVVTVPSSSLGTQTYICNVNHKPSNTKVDKKVEPKSCDKTHTCPPCPAPEAAGGPSVFLFPPKPKDTLMISRTPEVTCVVVDVSHEDPEVKFNWYVDGVEVHNAKTKPREEQYNSTYRVVSVLTVLHQDWLNGKEYKCKVSNKALPAPIEKTISKAKGQPREPQVYTLPPPSEELALNELVTLTCLVKGFYPSDIAVEWLQGSQELPREKYLTWAPVLDSDGSFFLYSILRVAAEDWKKGDTFSCSVMHEALHNRFTQKSLDRSPGK
light: DIQMTQSPSSLSASAGDRVTITCRASQAIRNDLGWYQQKPGKAPKRLIYAAFNLQSGVPSRFSGSGSGTEFTLTISSLQPEDLASYYCQQYNRYPWTFGQGTKVEIKRTVAAPSVFIFPPSDEQLKSGTASVVCLLNNFYPREAKVQWKVDNALQSGNSQESVTEQDSKDSTYSLSSTLTLSKADYEKHKVYACEVTHQGLSSPVTKSFNRGEC
B6: FGF18_Fab tanezumab (HL) (other)
heavy: EENVDFRIHVENQTRARDDVSRKQLRLYQLYSRTSGKHIQVLGRRISARGEDGDKYAQLLVETDTFGSQVRIKGKETEFYLCMNRKGKLVGKPDGTSKECVFIEKVLENNYTALMSAKYSGWYVGFTKKGRPRKGPKTRENQQDVHFMKRYPKGQPELQKPFKYTTVTKGGGGSGGGGSQVQLQESGPGLVKPSETLSLTCTVSGFSLIGYDLNWIRQPPGKGLEWIGIIWGDGTTDYNSAVKSRVTISKDTSKNQFSLKLSSVTAADTAVYYCARGGYWYATSYYFDYWGQGTLVTVSSASTKGPSVFPLAPSSKSTSGGTAALGCLVKDYFPEPVTVSWNSGALTSGVHTFPAVLQSSGLYSLSSVVTVPSSSLGTQTYICNVNHKPSNTKVDKKVEPKSC
light: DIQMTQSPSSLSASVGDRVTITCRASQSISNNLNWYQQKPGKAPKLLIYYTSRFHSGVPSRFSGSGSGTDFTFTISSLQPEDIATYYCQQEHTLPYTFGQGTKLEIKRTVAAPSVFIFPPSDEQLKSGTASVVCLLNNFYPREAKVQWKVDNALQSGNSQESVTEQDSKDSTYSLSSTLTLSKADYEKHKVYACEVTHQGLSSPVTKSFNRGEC
B7: FGF18_Fab fulranumab (HL) (other)
heavy: EENVDFRIHVENQTRARDDVSRKQLRLYQLYSRTSGKHIQVLGRRISARGEDGDKYAQLLVETDTFGSQVRIKGKETEFYLCMNRKGKLVGKPDGTSKECVFIEKVLENNYTALMSAKYSGWYVGFTKKGRPRKGPKTRENQQDVHFMKRYPKGQPELQKPFKYTTVTKGGGGSGGGGSEVQLVESGGGLVQPGGSLRLSCAASGFTLRSYSMNWVRQAPGKGLEWVSYISRSSHTIFYADSVKGRFTISRDNAKNSLYLQMDSLRDEDTAMYYCARVYSSGWHVSDYFDYWGQGILVTVSSASTKGPSVFPLAPSSKSTSGGTAALGCLVKDYFPEPVTVSWNSGALTSGVHTFPAVLQSSGLYSLSSVVTVPSSSLGTQTYICNVNHKPSNTKVDKKVEPKSC
light: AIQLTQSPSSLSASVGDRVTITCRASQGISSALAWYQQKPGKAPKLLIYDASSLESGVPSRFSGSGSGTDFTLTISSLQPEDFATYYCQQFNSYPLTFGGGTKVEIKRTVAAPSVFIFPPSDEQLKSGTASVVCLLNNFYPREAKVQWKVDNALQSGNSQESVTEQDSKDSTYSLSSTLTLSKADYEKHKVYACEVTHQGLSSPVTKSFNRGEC
B8: FGF18 SEED tanezumab (MBE626) (other)
chain: EENVDFRIHVENQTRARDDVSRKQLRLYQLYSRTSGKHIQVLGRRISARGEDGDKYAQLLVETDTFGSQVRIKGKETEFYLCMNRKGKLVGKPDGTSKECVFIEKVLENNYTALMSAKYSGWYVGFTKKGRPRKGPKTRENQQDVHFMKRYPKGQPELQKPFKYTTVTKGGSGGSGSGSEPKSSDKTHTCPPCPAPEAAGGPSVFLFPPKPKDTLMISRTPEVTCVVVDVSHEDPEVKFNWYVDGVEVHNAKTKPREEQYNSTYRVVSVLTVLHQDWLNGKEYKCKVSNKALPAPIEKTISKAKGQPFRPEVHLLPPSREEMTKNQVSLTCLARGFYPKDIAVEWESNGQPENNYKTTPSRQEPSQGTTTFAVTSKLTVDKSRWQQGNVFSCSVMHEALHNHYTQKTISLSPGK
heavy: QVQLQESGPGLVKPSETLSLTCTVSGFSLIGYDLNWIRQPPGKGLEWIGIIWGDGTTDYNSAVKSRVTISKDTSKNQFSLKLSSVTAADTAVYYCARGGYWYATSYYFDYWGQGTLVTVSSASTKGPSVFPLAPSSKSTSGGTAALGCLVKDYFPEPVTVSWNSGALTSGVHTFPAVLQSSGLYSLSSVVTVPSSSLGTQTYICNVNHKPSNTKVDKKVEPKSCDKTHTCPPCPAPEAAGGPSVFLFPPKPKDTLMISRTPEVTCVVVDVSHEDPEVKFNWYVDGVEVHNAKTKPREEQYNSTYRVVSVLTVLHQDWLNGKEYKCKVSNKALPAPIEKTISKAKGQPREPQVYTLPPPSEELALNELVTLTCLVKGFYPSDIAVEWLQGSQELPREKYLTWAPVLDSDGSFFLYSILRVAAEDWKKGDTFSCSVMHEALHNRFTQKSLDRSPGK
light: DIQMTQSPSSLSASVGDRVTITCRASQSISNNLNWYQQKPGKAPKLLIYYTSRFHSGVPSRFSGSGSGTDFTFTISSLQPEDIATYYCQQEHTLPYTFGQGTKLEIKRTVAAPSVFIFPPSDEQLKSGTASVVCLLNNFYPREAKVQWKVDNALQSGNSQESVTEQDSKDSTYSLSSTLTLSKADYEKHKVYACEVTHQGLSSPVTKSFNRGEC
B9: FGF18_Fab fasinumab (LH) (other)
light: EENVDFRIHVENQTRARDDVSRKQLRLYQLYSRTSGKHIQVLGRRISARGEDGDKYAQLLVETDTFGSQVRIKGKETEFYLCMNRKGKLVGKPDGTSKECVFIEKVLENNYTALMSAKYSGWYVGFTKKGRPRKGPKTRENQQDVHFMKRYPKGQPELQKPFKYTTVTKGGGGSGGGGSDIQMTQSPSSLSASAGDRVTITCRASQAIRNDLGWYQQKPGKAPKRLIYAAFNLQSGVPSRFSGSGSGTEFTLTISSLQPEDLASYYCQQYNRYPWTFGQGTKVEIKRTVAAPSVFIFPPSDEQLKSGTASVVCLLNNFYPREAKVQWKVDNALQSGNSQESVTEQDSKDSTYSLSSTLTLSKADYEKHKVYACEVTHQGLSSPVTKSFNRGEC
heavy: QVQLVQSGAEVKKPGASVKVSCKVSGFTLTELSIHWVRQAPGKGLEWMGGFDPEDGETIYAQKFQGRVTMTEDTSTDTAYMELTSLRSEDTAVYYCSTIFGVVTNFDNWGQGTLVTVSSASTKGPSVFPLAPSSKSTSGGTAALGCLVKDYFPEPVTVSWNSGALTSGVHTFPAVLQSSGLYSLSSVVTVPSSSLGTQTYICNVNHKPSNTKVDKKVEPKSC

Tests used:
FGFR3 = assay: cell-based or functional assay
NGF = assay: cell-based or functional assay
Sequence of NGF (P01138 122-241): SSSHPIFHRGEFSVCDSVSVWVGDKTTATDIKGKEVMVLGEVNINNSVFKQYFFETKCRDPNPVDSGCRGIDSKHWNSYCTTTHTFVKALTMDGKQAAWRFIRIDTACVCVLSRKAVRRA

Binder | FGF18 EC50 (nM), BaF3/FGFR3 assay; construct from expiCHO-S (FGFR3) [nM] | anti-NGF IC50 (nM), U2OS TrkA_p75 assay; construct from expiCHO-S (NGF) [nM] | FGF18 EC50 (nM), BaF3/FGFR3 assay; construct from HEK293 (FGFR3) [nM] | anti-NGF IC50 (nM), U2OS TrkA_p75 assay; construct from HEK293 (NGF) [nM]
B1 | 0.07 | 1.61 |  | 
B2 | 0.06 | 0.25 |  | 
B3 | 0.08 | 0.86 | 0.21 | 0.52
B4 | 0.06 | 1.33 |  | 
B5 | 0.14 | 0.29 |  | 
B6 | 0.05 | 0.84 |  | 
B7 | 0.06 | 1.07 |  | 
B8 | 0.05 | 0.44 |  | 
B9 | 0.1 | 1.56 | 0.27 | 0.54
